B1: DnaJ homolog subfamily C member 5, residues 16 to 77; numbered along this chain, Q9H3Z4 (parent)
chain: LYHVLGLDKNATSDDIKKSYRKLALKYHPDKNPDNPEAADKFKEINNAHAILTDATKRNIYD

Variants of: B1
Assay: abundance fitness (aPCA) (normalised: wild type 0, dead -1); higher = more abundant; growth selection in yeast, the domain comes from the species named
Conditions: Homo sapiens

Abundance fitness of substitutions, site by site:
A38: T -0.292 | W -0.305 | Y -0.132
A39: C 0.01 | D 0.033 | E -0.14 | F -0.56 | G -0.032 | I 0.064 | K 0.095 | L 0.014 | M -0.126 | N 0.003 | P -0.301 | Q -0.227 | R -0.021 | S -0.176 | T -0.427 | V -0.01 | Y 0.082
D40: A 0.137 | C -0.012 | E -0.171 | F 0.029 | H 0.156 | I 0.224 | K 0.385 | L 0.212 | M 0.255 | N -0.271 | P -0.258 | Q -0.03 | R 0.271 | T 0.054 | V 0.194 | W 0.046 | Y -0.05
K41: A -0.222 | C -0.598 | D -0.493 | E -0.311 | F -0.447 | G -0.433 | I -0.211 | N -0.434 | P -1.1 | Q -0.333 | R -0.119 | S -0.223 | T -0.197 | V -0.278 | W -0.4 | Y -0.254
F42: A -0.28 | C -0.243 | D -0.119 | E -0.192 | G -0.278 | H -0.421 | I -0.135 | K -0.188 | L 0.202 | M 0.223 | N -0.237 | P -0.41 | Q -0.233 | R -0.17 | S -0.219 | V -0.197 | W -0.05 | Y -0.017
K43: A 0.299 | D 0.015 | E -0.34 | F 0.349 | G -0.116 | H 0.519 | M 0.382 | N -0.23 | P -1.02 | Q 0.362 | R -0.263 | S -0.043 | T 0.051 | W -0.276 | Y 0.364
E44: A -0.135 | C -0.524 | D -0.154 | F -0.744 | G -0.527 | I -0.73 | K -0.376 | L -0.504 | M -0.097 | N -0.196 | P -0.626 | Q -0.301 | R -0.435 | S -0.3 | T -0.518 | V -0.264 | W -0.731 | Y -0.742
I45: A -0.181 | C -0.44 | D -0.311 | E -0.203 | F -0.747 | G -0.253 | H -0.792 | K -0.263 | L -0.026 | M -0.418 | N -0.381 | P -0.425 | Q -0.45 | R -0.623 | S -0.47 | T -0.216 | V 0.007 | W -0.841 | Y -0.366
N46: A 0.272 | C 0.174 | D -0.578 | E 0.093 | F -0.065 | G -0.082 | H -0.081 | I -0.178 | K -0.058 | L -0.169 | M -0.113 | P -0.653 | Q -0.035 | R -0.017 | T 0.256 | V 0.182 | W -0.778 | Y -0.312
N47: R -0.142 | S -0.259
A48: C -0.85 | D -0.16 | E -0.387 | F -1.72 | G -0.455 | H -0.477 | I -0.769 | M -1.06 | N -0.903 | P -0.384 | Q -0.82 | S -0.277 | T -0.777 | V -0.777 | W -1.58 | Y -0.748
H49: A 0.009 | C -0.405 | D -0.4 | E -0.362 | F 0.149 | G -0.052 | I -0.639 | K -0.032 | L -0.291 | M -0.002 | N -0.062 | P -0.423 | Q -0.161 | R 0.029 | S -0.279 | T -0.26 | V -0.091 | W -0.153 | Y -0.251
A50: C -0.688 | E -0.562 | F -0.61 | G -0.198 | H -0.237 | I -0.334 | K -0.091 | L -0.386 | M -0.087 | P -0.773 | Q -0.294 | R -0.009 | S 0.059 | T -0.072 | V -0.19 | W -0.748 | Y -0.604
I51: A -0.146 | C -0.142 | D 0.123 | E -0.301 | F -0.326 | G -0.257 | L -0.149 | M -0.131 | N -0.304 | P -0.166 | Q 0.036 | R -0.318 | S -0.262 | T -0.08 | V 0.106 | W -0.712 | Y -0.353
L52: A -0.303 | C -0.963 | D -0.381 | E -0.293 | F -0.295 | G -0.555 | H -0.767 | I -0.592 | K -0.419 | M -0.395 | N -1.02 | P -0.292 | Q -0.572 | R -0.479 | S -0.493 | T -0.446 | V -0.524 | W -0.454
T53: A -0.118 | C -0.126 | D -0.093 | E -0.277 | F -0.491 | G 0.07 | I -0.286 | K -0.011 | L -0.032 | M -0.157 | N 0.101 | P -0.678 | Q -0.186 | R -0.127 | S -0.116 | W -0.579
D54: A -0.214 | C -0.499 | E -0.278 | F -1.01 | G -0.304 | K -0.056 | L -0.632 | M -0.634 | N 0.044 | Q -0.666 | R -0.382 | T -0.512 | V -0.613 | W -0.907 | Y -1.01
A55: C -0.37 | D -0.514 | E -0.061 | F -0.334 | G -0.151 | H -0.287 | I -0.406 | K -0.002 | L -0.26 | M -0.258 | N -0.117 | P -0.036 | Q 0.028 | R -0.156 | S -0.135 | V -0.14 | W -0.413 | Y -0.423
T56: A -0.233 | C -0.069 | D -0.095 | E 0.097 | F -0.499 | G -0.09 | H -0.264 | I -0.425 | K -0.101 | L -0.421 | M -0.334 | P -0.516 | Q -0.417 | R -0.246 | S -0.15 | V -0.396 | W -0.475 | Y -0.424
K57: A -0.079 | C -0.672 | D -0.079 | E -0.023 | F -1.01 | G -0.373 | I -0.511 | L -0.399 | M -0.43 | N -0.575 | P -0.593 | Q -0.1 | R -0.059 | S -0.349 | T -0.415 | V -0.656 | W -0.99
R58: A -0.044 | C -0.442 | D -0.348 | E 0.109 | F -0.617 | G -0.21 | H -0.275 | I -0.503 | L -0.43 | M -0.471 | N -0.114 | P -0.119 | Q -0.161 | S -0.114 | V -0.363 | W -0.636 | Y -0.575
N59: A 0.197 | C 0.032 | D -0.234
